Assay results: the supplement of paper PMC10567573

B1: SNAP91 (parent)
chain: FSTDAFSSPPQGASPVPESSLTAD
B2: RHOBTB3 (parent)
chain: GGADIIVIKYNVNDKFSFHEVKDN

Variants of: B1
Assay: protein stability index of a GFP-peptide fusion (GPS, HEK-293T) (PSI 1-6); higher = more stable
Details: c terminus: a fixed tail appended
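Note: lentivirally expressed fusions sorted by FACS into six bins by GFP to DsRed ratio, PSI derived from sequencing read proportions per bin multiplied by bin number.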

Variant | protein stability index
FSTDVFSSPPQGASPVPESSLTAD | 4.18
FNTDAFSSPPQGASPVPESSLTAD | 5.09
FFTDAFSSPPQGASPVPESSLTAD | 3.96
FWTDAFSSPPQGASPVPESSLTAD | 3.48
FETDAFSSPPQGASPVPESSLTAD | 5.52
FGTDAFSSPPQGASPVPESSLTAD | 2.8
FTTDAFSSPPQGASPVPESSLTAD | 1.67
FKTDAFSSPPQGASPVPESSLTAD | 5.08
FHTDAFSSPPQGASPVPESSLTAD | 2.15
FVTDAFSSPPQGASPVPESSLTAD | 3.15
FITDAFSSPPQGASPVPESSLTAD | 1.64
FQTDAFSSPPQGASPVPESSLTAD | 2.58
FATDAFSSPPQGASPVPESSLTAD | 2.09
FPTDAFSSPPQGASPVPESSLTAD | 3
FLTDAFSSPPQGASPVPESSLTAD | 3.34
FRTDAFSSPPQGASPVPESSLTAD | 5.05
FCTDAFSSPPQGASPVPESSLTAD | 2.46
FYTDAFSSPPQGASPVPESSLTAD | 4.7
FDTDAFSSPPQGASPVPESSLTAD | 5.7
FMTDAFSSPPQGASPVPESSLTAD | 3.32

Variant | protein stability index
FSTDAFSGPPQGASPVPESSLTAD | 3.67
FSTDAFSIPPQGASPVPESSLTAD | 2.62
FSTDAFSCPPQGASPVPESSLTAD | 2.75
FSTDAFSFPPQGASPVPESSLTAD | 3.22
FSTDAFSAPPQGASPVPESSLTAD | 3.31
FSTDAFSEPPQGASPVPESSLTAD | 4.58
FSTDAFSDPPQGASPVPESSLTAD | 4.93
FSTDAFSTPPQGASPVPESSLTAD | 3.33
FSTDAFSMPPQGASPVPESSLTAD | 3.02
FSTDAFSHPPQGASPVPESSLTAD | 2.75
FSTDAFSQPPQGASPVPESSLTAD | 2.86
FSTDAFSNPPQGASPVPESSLTAD | 2.75
FSTDAFSVPPQGASPVPESSLTAD | 3.16
FSTDAFSRPPQGASPVPESSLTAD | 2.87
FSTDAFSKPPQGASPVPESSLTAD | 2.38
FSTDAFSPPPQGASPVPESSLTAD | 4
FSTDAFSLPPQGASPVPESSLTAD | 3.29
FSTDAFSYPPQGASPVPESSLTAD | 3.39
FSTDAFSWPPQGASPVPESSLTAD | 3.44
FSTDAFSSAPQGASPVPESSLTAD | 2.52

Variant | protein stability index
FSTDAFSSCPQGASPVPESSLTAD | 2.61
TSTDAFSSPPQGASPVPESSLTAD | 5.55
KSTDAFSSPPQGASPVPESSLTAD | 5.34
QSTDAFSSPPQGASPVPESSLTAD | 5.64
PSTDAFSSPPQGASPVPESSLTAD | 5.68
LSTDAFSSPPQGASPVPESSLTAD | 5.57
ESTDAFSSPPQGASPVPESSLTAD | 5.47
NSTDAFSSPPQGASPVPESSLTAD | 5.74
WSTDAFSSPPQGASPVPESSLTAD | 5.19
ISTDAFSSPPQGASPVPESSLTAD | 5.36
VSTDAFSSPPQGASPVPESSLTAD | 5.52
DSTDAFSSPPQGASPVPESSLTAD | 5.72
GSTDAFSSPPQGASPVPESSLTAD | 5.54
SSTDAFSSPPQGASPVPESSLTAD | 5.65
MSTDAFSSPPQGASPVPESSLTAD | 5.44
RSTDAFSSPPQGASPVPESSLTAD | 5.39
HSTDAFSSPPQGASPVPESSLTAD | 5.37
CSTDAFSSPPQGASPVPESSLTAD | 5.07
YSTDAFSSPPQGASPVPESSLTAD | 3.31
ASTDAFSSPPQGASPVPESSLTAD | 5.73

Variants of: B2
Assay: as above
Details: c terminus: a fixed tail appended

Variant | protein stability index
GGADIIVIPYNVNDKFSFHEVKDN | 2.07
GGADIIVIGYNVNDKFSFHEVKDN | 3.78
GGADIIVIRYNVNDKFSFHEVKDN | 2.33
GGADIIVIKYNVNDKFSFHEEKDN | 1.37
GGADIIVIKYNVNDKFSFHLVKDN | 2.02
GGADRIVIKYNVNDKFSFHEVKDN | 2.34
GGADAIVIKYNVNDKFSFHEVKDN | 1.81
DGADIIVIKYNVNDKFSFHEVKDN | 2.67
YGADIIVIKYNVNDKFSFHEVKDN | 2.04
HGADIIVIKYNVNDKFSFHEVKDN | 2.3
RGADIIVIKYNVNDKFSFHEVKDN | 3.04
QGADIIVIKYNVNDKFSFHEVKDN | 2.37
GGANIIVIKYNVNDKFSFHEVKDN | 2.47
GGAPIIVIKYNVNDKFSFHEVKDN | 3.07
GGADIIDIKYNVNDKFSFHEVKDN | 4.15
GGADIIPIKYNVNDKFSFHEVKDN | 4.13
GGADIIVIKMNVNDKFSFHEVKDN | 1.94

Variant | protein stability index
GGADIIVIKPNVNDKFSFHEVKDN | 2.77
GGADIIVIKYNVNDKFSFHEVDDN | 2.36
GGADIIVIKYNVNDKFKFHEVKDN | 3.18
GGADIIVIKYNLNDKFSFHEVKDN | 2.24
GGADIIVIKYNVNDKFSFHEVKDA | 2.09
GGADIIVIKYNVNDKFSFHEVKDS | 2.71
GGADIIVIKYNVNDKFSFHEVKSN | 2.21
GGADIIVIKYNVNDKFSFHEVKYN | 2.28
GGADIIVIKYNVNDFFSFHEVKDN | 2.8
GGADIIVIKYNVNTKFSFHEVKDN | 2.67
GGADIIVIKYNVLDKFSFHEVKDN | 2.87
GGADIIVIKYNVNDKFSIHEVKDN | 1.95
GGADIIVCKYNVNDKFSFHEVKDN | 2.22
GGADIIVQKYNVNDKFSFHEVKDN | 3.48
GGADIIVNKYNVNDKFSFHEVKDN | 4.41
GGADIIVIKYQVNDKFSFHEVKDN | 3.46
GGADIIVIKYWVNDKFSFHEVKDN | 3.58
